Experimental data taken from patent US20210180089A1, “NANOPARTICLES FOR TRANSFECTION” (LOXEGEN HOLDINGS PTY LTD, priority 2018, published 2021).
Ends that are not written are not given here.

Assay: Average particle diameter of peptide/DNA nanoparticles by ZetaPALS dynamic light scattering
Type: physicochemical
Description: The DNA was diluted to 50-100 ug/mL in 5mM HEPES pH 7.4. A peptide solution at a concentration of 100-180 ug/mL in 5 mM HEPES was prepared. A 250 uL volume of the DNA solution was transferred into a 2 mL Eppendorf tube. Using a 100 uL peptide, an equal volume of the peptide solution was titrated, at an appropriate rate to avoid aggregation, into the DNA solution while vortexing. The solution slowly turns translucent and no visible particles should occur. The particle size is measured using a dynamic light scattering (DLS) instrument (such as the Brookhaven ZetaPALS). The particle size should be below 100 nm, preferably below 80 nm. The nanoparticles were filtered through a 0.22 um sterile filter. The formulation was stored in a refrigerator (2-8 deg C.) until desired for use and/or for PEGylation. Where PEGylated peptide/DNA nanoparticles are required, a PEG-Zn solution was prepared in a separate tube at a concentration of about 400 mg/mL. 25-100 uL of the PEG solution was slowly added to 500 uL of the peptide/DNA nanoparticle preparation, depending on the degree of PEG-coating required. The particle size was measured by DLS. The particle size should be about 100-140 nm depending on the amount of PEG added. The formulation was store in a refrigerator (2-8 deg C.). Above describes a range for the peptide/DNA ratio which can be used in one embodiment. In a preferred example, the ratios used for nanoparticle preparation were: 100 ug/mL DNA and 100 ug/mL peptide mixed at equal volume. PEGylation: 50 uL of 440 mg/mL PEG-IDA-Zn into 500 uL nanoparticles as prepared above.

(H-Lys-His-Lys-His-His-Lys-His-Lys-His-His-Lys-His-Lys-His-His-Lys-His-Lys-His-Lys)4-Lys-Lys-Lys-His-His-His-His-Asn-His-His-His-His-OH (chain 1 H-KHKHHKHKHHKHKHHKHKHK; chain 2 KKKHHHHNHHHH-OH; also: four copies of chain 1 branched on core chain 2, attachment points not given here) [Peptide 2597, 9:11 Lys:His]
Average Particle Diameter (via ZETA Pals particle size analysis) (GFP, PEG): 90.9 nm (GFP, PEG) | Average Particle Diameter (via ZETA Pals particle size analysis) (GFP, non-PEG): 54.7 nm (GFP, non-PEG) | Average Particle Diameter (via ZETA Pals particle size analysis) (luciferase, PEG): 86.0 nm (luciferase, PEG) | Average Particle Diameter (via ZETA Pals particle size analysis) (luciferase, non-PEG): 51.3 nm (luciferase, non-PEG)

(H-Orn-His-Orn-His-His-Orn-His-His-Orn-His-His-Orn-His-His-Orn-His-His-Orn-His-Orn)4-Lys-Lys-Lys-His-His-His-His-Asn-His-His-His-His-OH [Peptide 2595]
Average Particle Diameter (via ZETA Pals particle size analysis) (GFP, PEG): 101.3 nm (GFP, PEG) | Average Particle Diameter (via ZETA Pals particle size analysis) (GFP, non-PEG): 73.7 nm (GFP, non-PEG) | Average Particle Diameter (via ZETA Pals particle size analysis) (luciferase, PEG): 70.9 nm (luciferase, PEG) | Average Particle Diameter (via ZETA Pals particle size analysis) (luciferase, non-PEG): 65.9 nm (luciferase, non-PEG)

(H-Lys-His-Lys-His-Lys-His-Lys-His-Lys-His-Lys-His-Lys-His-Lys-His-Lys-His-His-Lys)4-Lys-Lys-Lys-His-His-His-His-Asn-His-His-His-His-OH (chain 1 H-KHKHKHKHKHKHKHKHKHHK; chain 2 KKKHHHHNHHHH-OH; also: four copies of chain 1 branched on core chain 2, attachment points not given here) [Peptide 2596, 1:1 Lys:His]
Average Particle Diameter (via ZETA Pals particle size analysis) (GFP, PEG): 124.1 nm (GFP, PEG) | Average Particle Diameter (via ZETA Pals particle size analysis) (GFP, non-PEG): 82.1 nm (GFP, non-PEG) | Average Particle Diameter (via ZETA Pals particle size analysis) (luciferase, PEG): 77.4 nm (luciferase, PEG) | Average Particle Diameter (via ZETA Pals particle size analysis) (luciferase, non-PEG): 64.3 nm (luciferase, non-PEG)

(H-Lys-His-Lys-His-His-Lys-His-His-Lys-His-His-Lys-His-His-Lys-His-His-Lys-His-Lys)4-Lys-Lys-Lys-His-His-His-His-Asn-His-His-His-His-OH (chain 1 H-KHKHHKHHKHHKHHKHHKHK; chain 2 KKKHHHHNHHHH-OH; also: four copies of chain 1 branched on core chain 2, attachment points not given here) [Peptide 2070, original peptide HK, 2:3 Lys:His, 4 branches]
Average Particle Diameter (via ZETA Pals particle size analysis) (GFP, PEG): 127.4 nm (GFP, PEG) | Average Particle Diameter (via ZETA Pals particle size analysis) (GFP, non-PEG): 66.0 nm (GFP, non-PEG) | Average Particle Diameter (via ZETA Pals particle size analysis) (luciferase, PEG): 94.5 nm (luciferase, PEG) | Average Particle Diameter (via ZETA Pals particle size analysis) (luciferase, non-PEG): 58.5 nm (luciferase, non-PEG)
